Test results reported in patent US20240319212A1 (IMMUNDIAGNOSTIK, published 2024).

T1: complex of vitamin D binding protein with the 3C-epimer of 25(OH)D3 (human, UniProt P02774 17-474)
T1 construct: Same protein as m4, occupied by the epimer; also called DBP:3-epi-25(OH)D3
T1 sequence (looked up): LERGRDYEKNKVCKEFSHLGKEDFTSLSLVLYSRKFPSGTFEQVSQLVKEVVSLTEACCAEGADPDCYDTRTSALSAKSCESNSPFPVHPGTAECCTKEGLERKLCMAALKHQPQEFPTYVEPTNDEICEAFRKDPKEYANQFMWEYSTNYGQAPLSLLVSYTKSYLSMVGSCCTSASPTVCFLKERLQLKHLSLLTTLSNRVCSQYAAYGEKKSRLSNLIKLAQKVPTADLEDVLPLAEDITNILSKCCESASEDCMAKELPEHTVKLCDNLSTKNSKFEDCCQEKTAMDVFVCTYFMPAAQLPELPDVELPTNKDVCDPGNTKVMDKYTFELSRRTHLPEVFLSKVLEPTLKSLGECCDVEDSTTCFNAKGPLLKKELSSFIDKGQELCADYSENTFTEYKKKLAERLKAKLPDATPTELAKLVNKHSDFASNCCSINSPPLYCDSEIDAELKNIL

T2: complex of vitamin D binding protein with 24,25-dihydroxyvitamin D (DBP-24,25VD) (human, UniProt P02774 17-474)
T2 construct: Same protein as m4; 50 nM NT-647-labelled DBP was mixed with 37.8 nM metabolite; also called DBP:24,25(OH)VD
T2 sequence (looked up): T1 sequence (looked up)

T3: complex of vitamin D binding protein with 25-hydroxyvitamin D2 (DBP:25(OH)VD2) (human, UniProt P02774 17-474)
T3 construct: Same protein as m4; 50 nM NT-647-labelled DBP was mixed with 37.8 nM metabolite; also called DBP-VD2
T3 sequence (looked up): T1 sequence (looked up)

T4: soluble recombinant megalin M3 fragment (amino acids 2698 to 3192 of human LRP2/megalin, C-terminal 6x His … (human, UniProt P98164 2698-3192))
T4 construct: Expressed in HEK 293 cells and secreted, with the signal peptide removed; It tends to dimerise; also called E2698-R3192
T4 sequence: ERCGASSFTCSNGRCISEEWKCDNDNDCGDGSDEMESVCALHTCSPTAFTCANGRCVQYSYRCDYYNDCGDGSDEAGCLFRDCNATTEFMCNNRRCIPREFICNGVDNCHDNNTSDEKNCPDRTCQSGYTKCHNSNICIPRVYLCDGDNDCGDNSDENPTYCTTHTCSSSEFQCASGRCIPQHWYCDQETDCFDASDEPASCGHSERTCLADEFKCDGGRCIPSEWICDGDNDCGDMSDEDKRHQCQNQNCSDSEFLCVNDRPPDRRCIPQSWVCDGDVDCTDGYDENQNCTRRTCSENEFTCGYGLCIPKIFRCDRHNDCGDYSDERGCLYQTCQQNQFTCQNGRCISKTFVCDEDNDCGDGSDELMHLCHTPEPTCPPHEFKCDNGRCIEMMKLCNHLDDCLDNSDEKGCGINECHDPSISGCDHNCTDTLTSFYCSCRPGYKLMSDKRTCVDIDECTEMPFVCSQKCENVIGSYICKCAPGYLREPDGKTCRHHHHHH

B1: soluble recombinant megalin M2 fragment (amino acids 1024-1429 of human LRP2/megalin, C-terminal 6x His tag) (receptor)
chain: EQCGLFSFPCKNGRCVPNYYLCDGVDDCHDNSDEQLCGTLNNTCSSSAFTCGHGECIPAHWRCDKRNDCVDGSDEHNCPTHAPASCLDTQYTCDNHQCISKNWVCDTDNDCGDGSDEKNCNSTETCQPSQFNCPNHRCIDLSFVCDGDKDCVDGSDEVGCVLNCTASQFKCASGDKCIGVTNRCDGVFDCSDNSDEAGCPTRPPGMCHSDEFQCQEDGICIPNFWECDGHPDCLYGSDEHNACVPKTCPSSYFHCDNGNCIHRAWLCDRDNDCGDMSDEKDCPTQPFRCPSWQWQCLGHNICVNLSVVCDGIFDCPNGTDESPLCNGNSCSDFNGGCTHECVQEPFGAKCLCPLGFLLANDSKTCEDIDECDILGSCSQHCYNMRGSFRCSCDTGYMLESDGRTCKHHHHHH
notes: Expressed in and secreted by HEK cells, with the signal peptide removed; It tends to dimerise and is the fragment most easily dissociated to monomer; also called E1024-K1429
B2: Human RAP (ligand, UniProt P30533 35-357, looked up)
chain: YSREKNQPKPSPKRESGEEFRMEKLNQLWEKAQRLHLPPVRLAELHADLKIQERDELAWKKLKLDGLDEDGEKEARLIRNLNVILAKYGLDGKKDARQVTSNSLSGTQEDGLDDPRLEKLWHKAKTSGKFSGEELDKLWREFLHHKEKVHEYNVLLETLSRTEEIHENVISPSDLSDIKGSVLHSRHTELKEKLRSINQGLDRLRRVSHQGYSTEAEFEEPRVIDLWDLAQSANLTDKELEAFREELKHFEAKIEKHNHYQKQLEIAHEKLRHAESVGDGERVSRSREKHALLEGRTKELGYTVKKHLQDLSGRISRARHNEL
B3: DBP-1,25(OH)VD3 complex (ligand)
chain: T1 sequence (looked up)
modifications: The protein carries the red fluorescent dye NT-647 (positions not stated). 1,25(OH)2 vitamin D3 is bound non-covalently and cannot be written in letters. It is a natural glycoprotein.
notes: also called DBP:1,25(OH)2D3
B4: complex of vitamin D binding protein with 25-hydroxyvitamin D3 (DBP:25(OH)D3) (ligand, human, UniProt P02774 17-474, looked up)
chain: T1 sequence (looked up)
notes: Same protein as m4, occupied by the small molecule 25(OH)D3; Both are treated as this one entry; also called DBP:VD3; DBP/VD3
B5: vitamin D binding protein (DBP) alone, without added vitamin D metabolite (ligand, human, UniProt P02774 17-474, looked up)
chain: T1 sequence (looked up)
notes: also called apoprotein DBP; non-complexed DBP

Key:
[1] = biological target: T1, complex of vitamin D binding protein …; test: microscale thermophoresis; NT-647-labelled DBP (50 nM) mixed with the vitamin D metabolite (37.8 nM), here 3epi25(OH)VD3; purified megalin M2 titrated
[2] = biological target: B5; test: MST, NT-647-labelled DBP (50 nM), megalin fragment titrated, absence of 25-OH vitamin D3; microscale thermophoresis; NT-647-labelled DBP, purified soluble M2 titrated 0.488-1000 nmol/L; absence of 25-OH vitamin D3
[3] = biological target: T2, complex of vitamin D binding protein …; test: MST, NT-647-labelled DBP (50 nM) mixed with 24,25VD (37.8 nM), megalin M2 titrated
[4] = biological target: T3, complex of vitamin D binding protein …; test: MST, NT-647-labelled DBP (50 nM) mixed with 25(OH)VD2 (37.8 nM), megalin M2 titrated
Human C1q = Human C1q (human, UniProt P02745 23-245; P02746 28-253; P02747 29-245); test: peptide array of megalin M2 region; major binding epitopes of megalin ligands
Sequence of Human C1q (P02745 23-245 limits assumed, chain 1 of 3): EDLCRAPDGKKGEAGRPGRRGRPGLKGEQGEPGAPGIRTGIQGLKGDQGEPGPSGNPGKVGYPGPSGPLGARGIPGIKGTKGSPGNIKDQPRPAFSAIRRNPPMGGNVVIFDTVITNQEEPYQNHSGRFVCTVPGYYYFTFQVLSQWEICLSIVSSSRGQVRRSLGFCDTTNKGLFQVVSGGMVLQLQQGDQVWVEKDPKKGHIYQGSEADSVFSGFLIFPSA
Sequence of Human C1q (P02746 28-253 limits assumed, chain 2 of 3): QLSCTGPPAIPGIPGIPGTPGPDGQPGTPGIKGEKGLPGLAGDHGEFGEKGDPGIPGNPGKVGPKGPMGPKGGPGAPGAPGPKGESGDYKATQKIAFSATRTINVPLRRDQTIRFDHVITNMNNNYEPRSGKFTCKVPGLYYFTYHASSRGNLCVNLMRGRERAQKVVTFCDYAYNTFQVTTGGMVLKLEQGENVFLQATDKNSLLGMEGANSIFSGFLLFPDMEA
Sequence of Human C1q (P02747 29-245 limits assumed, chain 3 of 3): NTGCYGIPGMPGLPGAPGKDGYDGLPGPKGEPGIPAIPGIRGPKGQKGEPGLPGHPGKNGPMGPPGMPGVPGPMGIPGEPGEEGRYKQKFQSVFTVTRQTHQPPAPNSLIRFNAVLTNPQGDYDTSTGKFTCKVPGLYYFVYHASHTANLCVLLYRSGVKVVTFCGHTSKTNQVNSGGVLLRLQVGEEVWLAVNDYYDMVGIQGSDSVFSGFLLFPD

Human Albumin-His-tag = biological target: T5, Human Albumin-His-tag (human, UniProt P02768 25-609); test: as above
T5 construct: not shown: His-tag
T5 sequence (P02768 25-609 limits assumed): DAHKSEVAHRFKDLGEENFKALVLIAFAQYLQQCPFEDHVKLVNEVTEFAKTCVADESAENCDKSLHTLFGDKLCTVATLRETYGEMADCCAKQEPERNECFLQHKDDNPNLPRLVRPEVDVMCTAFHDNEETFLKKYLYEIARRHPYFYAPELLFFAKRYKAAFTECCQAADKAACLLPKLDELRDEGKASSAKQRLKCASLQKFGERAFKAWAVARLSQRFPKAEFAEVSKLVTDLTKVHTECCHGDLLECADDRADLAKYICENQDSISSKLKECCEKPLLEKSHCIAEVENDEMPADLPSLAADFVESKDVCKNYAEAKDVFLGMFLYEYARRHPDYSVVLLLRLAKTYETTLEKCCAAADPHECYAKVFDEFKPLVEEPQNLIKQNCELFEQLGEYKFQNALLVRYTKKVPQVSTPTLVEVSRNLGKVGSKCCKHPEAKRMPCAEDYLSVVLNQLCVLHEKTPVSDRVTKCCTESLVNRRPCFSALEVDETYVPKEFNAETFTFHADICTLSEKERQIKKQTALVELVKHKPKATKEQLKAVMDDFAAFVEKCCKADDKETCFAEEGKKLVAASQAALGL

[5] = biological target: B4; test: MST, NT-647-labelled DBP (50 nM) mixed with 25(OH)VD3 (37.8 nM), megalin M2 titrated
[6] = biological target: B4; test: MST, NT-647-labelled DBP (50 nM) with VD3 (50 nM), megalin fragment titrated
[7] = biological target: B1; test: peptide array of megalin M2 region; major binding epitopes of megalin ligands
[8] = biological target: B1; test: microscale thermophoresis; NT-647-labelled DBP mixed with 1,25(OH)VD3; purified megalin M2 titrated (set-up as in paragraph 103)
[9] = biological target: T4, soluble recombinant megalin M3 fragment …; test: co-immunoprecipitation with lysate of HEK cells expressing M3; pull-down with anti-His antibody beads; Western blot with anti-DBP antibody

B1
Kd [1]: 5.86 nM | Kd [2]: 134 nM | Kd [3]: 171 nM | Kd [4]: 160 nM | binding result (Human C1q): binds | binding result (Human Albumin-His-tag): binds | Kd [5]: 33.7 nM | Kd [6]: 23.7 nM

B2
binding result [7]: binds

B3
Kd [8]: 18.1 nM

B4
binding result [9]: no binding (tested: DBP 0,5 µg with VD3 0,2 µg)

B5
binding result [9]: no binding (tested: DBP 0,5 µg)
